Measurements from publication PMC9482650, “Quantitative fragmentomics allow affinity mapping of interactomes” (Nature Communications, 2022).
Residue numbers refer to the chain shown, from its start.

T1: APBA1_1, Q02410
T1 sequence (Q02410 651-752, limits assumed, looked up): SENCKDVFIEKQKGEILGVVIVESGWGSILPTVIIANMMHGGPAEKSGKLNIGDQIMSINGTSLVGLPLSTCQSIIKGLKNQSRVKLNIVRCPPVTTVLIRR

T2: ARHGAP21, Q5T5U3
T2 sequence (Q5T5U3 45-169, limits assumed, looked up): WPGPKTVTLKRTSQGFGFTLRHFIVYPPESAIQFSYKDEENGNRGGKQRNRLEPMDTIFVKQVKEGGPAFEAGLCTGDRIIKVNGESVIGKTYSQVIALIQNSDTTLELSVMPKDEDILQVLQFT

T3: DFNB31_2, Q9P202
T3 sequence (Q9P202 274-371, limits assumed, looked up): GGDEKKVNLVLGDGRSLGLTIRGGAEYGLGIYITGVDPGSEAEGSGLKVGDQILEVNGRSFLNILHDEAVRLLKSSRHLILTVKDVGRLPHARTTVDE

T4: DLG3_2, Q92796
T4 sequence (Q92796 221-321, limits assumed, looked up): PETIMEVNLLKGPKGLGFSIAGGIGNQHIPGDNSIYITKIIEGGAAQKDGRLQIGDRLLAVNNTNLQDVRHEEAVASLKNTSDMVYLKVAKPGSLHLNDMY

T5: GRIP1_3, Q9Y3R0
T5 sequence (Q9Y3R0 247-346, limits assumed, looked up): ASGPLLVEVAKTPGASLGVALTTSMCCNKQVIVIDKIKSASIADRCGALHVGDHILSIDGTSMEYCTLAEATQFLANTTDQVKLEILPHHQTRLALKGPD

T6: GRIP1_4, Q9Y3R0
T6 sequence (Q9Y3R0 467-571, limits assumed, looked up): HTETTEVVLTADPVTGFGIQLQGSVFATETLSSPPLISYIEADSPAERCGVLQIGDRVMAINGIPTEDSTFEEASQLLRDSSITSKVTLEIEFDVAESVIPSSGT

T7: HTRA3, P83110
T7 sequence (P83110 354-453, limits assumed, looked up): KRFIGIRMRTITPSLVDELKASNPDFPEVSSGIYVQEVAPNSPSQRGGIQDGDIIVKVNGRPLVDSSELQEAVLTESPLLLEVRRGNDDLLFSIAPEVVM

T8: LIN7B, Q9HAP6
T8 sequence (Q9HAP6 88-185, limits assumed, looked up): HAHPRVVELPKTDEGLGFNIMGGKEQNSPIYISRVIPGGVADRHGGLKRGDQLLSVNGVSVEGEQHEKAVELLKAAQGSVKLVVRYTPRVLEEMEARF

T9: LIN7C, Q9NUP9
T9 sequence (Q9NUP9 88-185, limits assumed, looked up): T8 sequence (Q9HAP6 88-185, limits assumed, looked up) with A2S, D13E, V35I, V40I, Q65H, S79K, R89K, A96S

T10: MPP7, Q5T2T1
T10 sequence (Q5T2T1 134-230, limits assumed, looked up): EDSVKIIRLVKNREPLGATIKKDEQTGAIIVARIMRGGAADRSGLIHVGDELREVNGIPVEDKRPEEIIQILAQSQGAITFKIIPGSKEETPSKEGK

T11: PDZRN3_1, Q9UPQ7
T11 sequence (Q9UPQ7 244-349, limits assumed, looked up): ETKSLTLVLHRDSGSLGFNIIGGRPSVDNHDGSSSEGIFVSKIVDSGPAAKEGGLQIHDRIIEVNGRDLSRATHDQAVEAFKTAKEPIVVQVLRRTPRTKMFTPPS


What follows are binders tested against T1, APBA1_1, Q02410 (assay: holdup assay). Details: plain residues with an end cap or a label only (N-terminal biotin on a linker: ado-ado).
Design: key: below the threshold = too weak to quantify, mostly under pKd 3.1 to 4

pKd	Binder
below the threshold	PDGQCTVTEV [RNF146, Q9NTX7]

These binders were tested against T2, ARHGAP21, Q5T5U3 (assay: holdup assay). Details: plain residues with an end cap or a label only (N-terminal biotin on a linker: ado-ado).
Design: key: below the threshold = too weak to quantify, mostly under pKd 3.1 to 4

pKd	Binder
below the threshold	PDGQCTVTEV [RNF146, Q9NTX7]

The binders below were run against CASK, O14936 (assay: holdup assay). Details: plain residues with an end cap or a label only (N-terminal biotin on a linker: ado-ado).
Design: key: below the threshold = too weak to quantify, mostly under pKd 3.1 to 4

Chain of CASK, O14936 (O14936 487-570): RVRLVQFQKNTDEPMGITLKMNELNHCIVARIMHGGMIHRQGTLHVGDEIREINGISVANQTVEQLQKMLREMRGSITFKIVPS

pKd	Binder
below the threshold	PDGQCTVTEV [RNF146, Q9NTX7]

These binders were tested against T3, DFNB31_2, Q9P202 (assay: holdup assay). Details: plain residues with an end cap or a label only (N-terminal biotin on a linker: ado-ado).
Design: key: below the threshold = too weak to quantify, mostly under pKd 3.1 to 4

pKd	Binder
below the threshold	PDGQCTVTEV [RNF146, Q9NTX7]

These binders were tested against T4, DLG3_2, Q92796 (assay: holdup assay). Details: plain residues with an end cap or a label only (N-terminal biotin on a linker: ado-ado).
Design: key: below the threshold = too weak to quantify, mostly under pKd 3.1 to 4

pKd	Binder
4.98	PDGQCTVTEV [RNF146, Q9NTX7]

The binders below were run against DLG4_1, P78352 (assay: holdup assay). Details: plain residues with an end cap or a label only (N-terminal biotin on a linker: ado-ado).
Design: key: below the threshold = too weak to quantify, mostly under pKd 3.1 to 4

Chain of DLG4_1, P78352 (P78352 62-152): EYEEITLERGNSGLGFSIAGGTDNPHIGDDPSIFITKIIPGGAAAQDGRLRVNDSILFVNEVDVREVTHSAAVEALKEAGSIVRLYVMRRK

pKd	Binder
4.6	PDGQCTVTEV [RNF146, Q9NTX7]

The binders below were run against FRMPD3, Q5JV73 (assay: holdup assay). Details: plain residues with an end cap or a label only (N-terminal biotin on a linker: ado-ado).
Design: key: below the threshold = too weak to quantify, mostly under pKd 3.1 to 4

Chain of FRMPD3, Q5JV73 (Q5JV73 12-100): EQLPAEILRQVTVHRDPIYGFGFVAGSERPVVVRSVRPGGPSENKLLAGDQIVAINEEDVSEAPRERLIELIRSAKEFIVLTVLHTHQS

pKd	Binder
below the threshold	PDGQCTVTEV [RNF146, Q9NTX7]

What follows are binders tested against FRMPD4, Q14CM0 (assay: holdup assay). Details: plain residues with an end cap or a label only (N-terminal biotin on a linker: ado-ado).
Design: key: below the threshold = too weak to quantify, mostly under pKd 3.1 to 4

Chain of FRMPD4, Q14CM0 (Q14CM0 67-160): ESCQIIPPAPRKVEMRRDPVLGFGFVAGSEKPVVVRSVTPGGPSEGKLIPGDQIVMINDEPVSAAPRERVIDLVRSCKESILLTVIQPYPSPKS

pKd	Binder
below the threshold	PDGQCTVTEV [RNF146, Q9NTX7]

What follows are binders tested against GIPC2, Q8TF65 (assay: holdup assay). Details: plain residues with an end cap or a label only (N-terminal biotin on a linker: ado-ado).
Design: key: below the threshold = too weak to quantify, mostly under pKd 3.1 to 4

Chain of GIPC2, Q8TF65 (Q8TF65 112-203): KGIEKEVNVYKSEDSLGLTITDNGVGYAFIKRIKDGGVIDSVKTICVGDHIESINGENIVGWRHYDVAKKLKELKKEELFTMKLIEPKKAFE

pKd	Binder
3.78	PDGQCTVTEV [RNF146, Q9NTX7]

What follows are binders tested against GORASP1, Q9BQQ3 (assay: holdup assay). Details: plain residues with an end cap or a label only (N-terminal biotin on a linker: ado-ado).
Design: key: below the threshold = too weak to quantify, mostly under pKd 3.1 to 4

Chain of GORASP1, Q9BQQ3 (Q9BQQ3 1-208): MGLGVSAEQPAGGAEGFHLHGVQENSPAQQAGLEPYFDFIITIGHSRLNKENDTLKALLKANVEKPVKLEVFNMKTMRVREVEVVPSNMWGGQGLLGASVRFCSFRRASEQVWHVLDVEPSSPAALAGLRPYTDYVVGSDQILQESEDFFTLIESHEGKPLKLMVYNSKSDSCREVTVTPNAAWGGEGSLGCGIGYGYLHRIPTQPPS

pKd	Binder
below the threshold	PDGQCTVTEV [RNF146, Q9NTX7]

What follows are binders tested against GORASP2, Q9H8Y8 (assay: holdup assay). Details: plain residues with an end cap or a label only (N-terminal biotin on a linker: ado-ado).
Design: key: below the threshold = too weak to quantify, mostly under pKd 3.1 to 4

pKd	Binder
4.17	PDGQCTVTEV [RNF146, Q9NTX7]

The binders below were run against GRID2IP_1, A4D2P6 (assay: holdup assay). Details: plain residues with an end cap or a label only (N-terminal biotin on a linker: ado-ado).
Design: key: below the threshold = too weak to quantify, mostly under pKd 3.1 to 4

Chain of GRID2IP_1, A4D2P6 (A4D2P6 1-87): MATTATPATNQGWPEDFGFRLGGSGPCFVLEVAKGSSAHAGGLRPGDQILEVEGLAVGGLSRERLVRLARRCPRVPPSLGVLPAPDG

pKd	Binder
below the threshold	PDGQCTVTEV [RNF146, Q9NTX7]

What follows are binders tested against T5, GRIP1_3, Q9Y3R0 (assay: holdup assay). Details: plain residues with an end cap or a label only (N-terminal biotin on a linker: ado-ado).
Design: key: below the threshold = too weak to quantify, mostly under pKd 3.1 to 4

pKd	Binder
below the threshold	PDGQCTVTEV [RNF146, Q9NTX7]

What follows are binders tested against T6, GRIP1_4, Q9Y3R0 (assay: holdup assay). Details: plain residues with an end cap or a label only (N-terminal biotin on a linker: ado-ado).
Design: key: below the threshold = too weak to quantify, mostly under pKd 3.1 to 4

pKd	Binder
below the threshold	PDGQCTVTEV [RNF146, Q9NTX7]

Each binder was assayed against GRIP2_5, Q9C0E4 (assay: holdup assay). Details: plain residues with an end cap or a label only (N-terminal biotin on a linker: ado-ado).
Design: key: below the threshold = too weak to quantify, mostly under pKd 3.1 to 4

Chain of GRIP2_5, Q9C0E4 (Q9C0E4 544-642): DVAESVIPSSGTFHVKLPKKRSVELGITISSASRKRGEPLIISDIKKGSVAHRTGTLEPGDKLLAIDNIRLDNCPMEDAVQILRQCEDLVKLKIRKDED

pKd	Binder
below the threshold	PDGQCTVTEV [RNF146, Q9NTX7]

The binders below were run against T7, HTRA3, P83110 (assay: holdup assay). Details: plain residues with an end cap or a label only (N-terminal biotin on a linker: ado-ado).
Design: key: below the threshold = too weak to quantify, mostly under pKd 3.1 to 4

pKd	Binder
below the threshold	PDGQCTVTEV [RNF146, Q9NTX7]

These binders were tested against Inadl_2, Q8NI35 (assay: holdup assay). Details: plain residues with an end cap or a label only (N-terminal biotin on a linker: ado-ado).
Design: key: below the threshold = too weak to quantify, mostly under pKd 3.1 to 4

Chain of Inadl_2, Q8NI35 (Q8NI35 238-335): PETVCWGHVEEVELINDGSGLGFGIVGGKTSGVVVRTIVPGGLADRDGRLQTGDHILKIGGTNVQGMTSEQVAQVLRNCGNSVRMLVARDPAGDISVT

pKd	Binder
below the threshold	PDGQCTVTEV [RNF146, Q9NTX7]

The binders below were run against T8, LIN7B, Q9HAP6 (assay: holdup assay). Details: plain residues with an end cap or a label only (N-terminal biotin on a linker: ado-ado).
Design: key: below the threshold = too weak to quantify, mostly under pKd 3.1 to 4

pKd	Binder
below the threshold	PDGQCTVTEV [RNF146, Q9NTX7]

These binders were tested against T9, LIN7C, Q9NUP9 (assay: holdup assay). Details: plain residues with an end cap or a label only (N-terminal biotin on a linker: ado-ado).
Design: key: below the threshold = too weak to quantify, mostly under pKd 3.1 to 4

pKd	Binder
below the threshold	PDGQCTVTEV [RNF146, Q9NTX7]

These binders were tested against LNX1_1, Q8TBB1 (assay: holdup assay). Details: plain residues with an end cap or a label only (N-terminal biotin on a linker: ado-ado).
Design: key: below the threshold = too weak to quantify, mostly under pKd 3.1 to 4

Chain of LNX1_1, Q8TBB1 (Q8TBB1 261-371): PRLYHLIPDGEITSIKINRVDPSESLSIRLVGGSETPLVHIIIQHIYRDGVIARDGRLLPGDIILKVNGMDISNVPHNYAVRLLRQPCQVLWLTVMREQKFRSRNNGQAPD

pKd	Binder
4.12	PDGQCTVTEV [RNF146, Q9NTX7]

Each binder was assayed against MAGI2_3, Q86UL8 (assay: holdup assay). Details: plain residues with an end cap or a label only (N-terminal biotin on a linker: ado-ado).
Design: key: below the threshold = too weak to quantify, mostly under pKd 3.1 to 4

Chain of MAGI2_3, Q86UL8 (Q86UL8 600-682): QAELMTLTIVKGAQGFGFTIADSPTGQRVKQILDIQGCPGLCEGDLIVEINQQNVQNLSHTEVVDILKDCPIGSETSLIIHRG

pKd	Binder
3.94	PDGQCTVTEV [RNF146, Q9NTX7]

The binders below were run against MAGI2_4, Q86UL8 (assay: holdup assay). Details: plain residues with an end cap or a label only (N-terminal biotin on a linker: ado-ado).
Design: key: below the threshold = too weak to quantify, mostly under pKd 3.1 to 4

Chain of MAGI2_4, Q86UL8 (Q86UL8 772-865): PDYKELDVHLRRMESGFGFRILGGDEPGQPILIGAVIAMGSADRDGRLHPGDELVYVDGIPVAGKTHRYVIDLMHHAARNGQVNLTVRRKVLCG

pKd	Binder
4.38	PDGQCTVTEV [RNF146, Q9NTX7]

Each binder was assayed against T10, MPP7, Q5T2T1 (assay: holdup assay). Details: plain residues with an end cap or a label only (N-terminal biotin on a linker: ado-ado).
Design: key: below the threshold = too weak to quantify, mostly under pKd 3.1 to 4

pKd	Binder
below the threshold	PDGQCTVTEV [RNF146, Q9NTX7]

The binders below were run against NHERF4_2, Q86UT5 (assay: holdup assay). Details: plain residues with an end cap or a label only (N-terminal biotin on a linker: ado-ado).
Design: key: below the threshold = too weak to quantify, mostly under pKd 3.1 to 4

Chain of NHERF4_2, Q86UT5 (Q86UT5 220-308): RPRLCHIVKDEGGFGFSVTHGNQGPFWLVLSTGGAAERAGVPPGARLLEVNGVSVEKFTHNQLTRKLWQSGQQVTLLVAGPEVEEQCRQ

pKd	Binder
3.59	PDGQCTVTEV [RNF146, Q9NTX7]

What follows are binders tested against T11, PDZRN3_1, Q9UPQ7 (assay: holdup assay). Details: plain residues with an end cap or a label only (N-terminal biotin on a linker: ado-ado).
Design: key: below the threshold = too weak to quantify, mostly under pKd 3.1 to 4

pKd	Binder
3.5	PDGQCTVTEV [RNF146, Q9NTX7]
